Assay results reported in patent US20200181251A1 (SCHOLAR ROCK, published 2020).

Target: T1, LRRC33 (Leucine-rich repeat-containing protein 33) (human, UniProt Q86YC3 19-692)
T1 construct: Endogenous LRRC33 on the surface of PMA-stimulated THP1 cells; On cells it may be complexed with proTGFb1; also called NRROS; Negative Regulator of Reactive Oxygen Species
T1 sequence: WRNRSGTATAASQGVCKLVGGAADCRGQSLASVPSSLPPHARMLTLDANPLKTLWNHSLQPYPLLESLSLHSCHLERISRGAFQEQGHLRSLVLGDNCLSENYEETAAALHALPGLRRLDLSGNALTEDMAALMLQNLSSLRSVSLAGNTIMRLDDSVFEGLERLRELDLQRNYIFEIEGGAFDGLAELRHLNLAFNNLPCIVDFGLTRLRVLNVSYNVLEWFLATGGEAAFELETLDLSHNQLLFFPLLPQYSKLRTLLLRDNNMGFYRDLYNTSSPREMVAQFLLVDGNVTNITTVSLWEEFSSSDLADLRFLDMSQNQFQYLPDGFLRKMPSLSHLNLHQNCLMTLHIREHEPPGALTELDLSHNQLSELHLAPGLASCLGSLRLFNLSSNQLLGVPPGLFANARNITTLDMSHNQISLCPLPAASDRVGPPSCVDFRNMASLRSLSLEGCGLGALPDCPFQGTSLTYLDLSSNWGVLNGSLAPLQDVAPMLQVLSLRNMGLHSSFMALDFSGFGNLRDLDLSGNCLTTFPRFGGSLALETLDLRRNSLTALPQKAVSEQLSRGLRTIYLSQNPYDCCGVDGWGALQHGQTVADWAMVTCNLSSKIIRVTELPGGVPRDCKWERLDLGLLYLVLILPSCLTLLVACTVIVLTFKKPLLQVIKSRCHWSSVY
Test: staining of PMA-stimulated THP1 cells with 10 ug/mL antibody, detected with fluorophore conjugated secondary antibody (internalization assay)
Experimental: FIG. 15 provides results from an internalization study. THP1 cells were stimulated overnight with PMA to induce LRRC33 surface expression and adherence to tissue culture plastic. The next day, cells were stained with antibodies at 10 ug/mL for 1 hour. A subset of cells were washed and moved to cell culture media and to 37° C. for 1 hour or two hours, while another subset (time 0) were immediately fixed. Another subset of cells were washed and kept at 4° C. Internalization was detected by using fluorophore conjugated secondary antibodies against the primary antibody isotypes. Gemtuzumab and SRL1, a human specific mouse antibody against LRRC33, internalize similarly.

B1: SRL1 (antibody, V domains shown)
VH: EVQLQQSGTVLARPGASVKMSCKASGYTFTYYWMQWVKQRPGQGLEWIGAIYPGNSDTTYNQKFKGKAKLTAVTSTSTAYMELSSLTNEDSAVYYCTNTNWEAMDYWGQGTSVTVSS
VL: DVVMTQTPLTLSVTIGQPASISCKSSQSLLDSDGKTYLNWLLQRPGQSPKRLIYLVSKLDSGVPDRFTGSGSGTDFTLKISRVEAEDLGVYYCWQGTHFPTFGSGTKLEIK
notes: also called LRRC33 antibody SRL1
Question: Does B1 bind?
Answer: binds
